The labels stand for the following.
B1: bispecific antibody candidate II-1 (bispecific antibody, IgG1, V domains shown)
VH 1: QVQLVQSGAEVKKPGSSVKVSCKASGGTFTIYAISWVRQAPGQGLEWMGGILPIFGTGHYVQKFQGRVTITADESTSTSYMELSSLRSEDTAVYYCAREPENWGQGTLVTVSS
VH 2: QVQLQESGPGLVEPSGTLSLTCAVSGGSISSRNWWSWVRQPPGKGLEWIGEIYHSGSTNYNPSLKSRVTISVDKSKNQFSLNLNSVTAADTAVYYCARDNDILTGYFDGYFDYWGQGTLVTVSS
VL: not shown
notes: hIgG1, 1:1 knob-in-hole; also called 11-1; knob-in-hole bispecific antibody
B2: bispecific antibody candidate II-2 (bispecific antibody, IgG1, V domains shown)
VH 1: QVQLVQSGAEVKKPGASVKVSCTASGDAFTGDSIHWVRQAPGQGLEWMGWITPNSGGTSYAQRFQGRVTLTRDTSISTVYMDLRRLRSDDTAVYFCASGLTVPFDYWGQGTLVTVSS
VH 2: B1 VH 2
VL: not shown
notes: hIgG1, 1:1 knob-in-hole; also called 11-2; knob-in-hole bispecific antibody
B3: TL1A binding antibody candidate 1 of TABLE 47 (VH SEQ ID NO: 902, VL SEQ ID NO: 1768) (antibody, V domains shown)
VH: B1 VH 2 with E13K, T69I
VL: not shown
notes: It was expressed in CHO cells and captured by an anti-human IgG-Fc antibody (human IgG Fc)
B4: TL1A binding antibody candidate 5 of TABLE 47 (VH SEQ ID NO: 907, VL SEQ ID NO: 1768) (antibody, V domains shown)
VH: B1 VH 2 with E13K, S30T
VL: not shown
notes: as for B3
B5: TL1A binding antibody candidate 6 of TABLE 47 (VH SEQ ID NO: 908, VL SEQ ID NO: 1768) (antibody, V domains shown)
VH: B1 VH 2 with E13K, L83V
VL: not shown
notes: as for B3
B6: TL1A binding antibody candidate 7 of TABLE 47 (VH SEQ ID NO: 909, VL SEQ ID NO: 1768) (antibody, V domains shown)
VH: B1 VH 2 with E13K, N84K
VL: not shown
notes: as for B3
B7: TL1A binding antibody candidate 2 of TABLE 47 (VH SEQ ID NO: 903, VL SEQ ID NO: 1768) (antibody, V domains shown)
VH: B1 VH 2 with E13K, T104D
VL: not shown
notes: as for B3
B8: TL1A binding antibody candidate 8 of TABLE 47 (VH SEQ ID NO: 933, VL SEQ ID NO: 1768) (antibody, V domains shown)
VH: B1 VH 2
VL: not shown
notes: as for B3

Binding result and Kd data for 8 molecules are collected here from US20260265389A1 (CANTAI THERAPEUTICS, published 2026).

Substitutions are numbered along the chain they refer to.

The target of one experiment is T1, IL-23 heterodimer (IL-23α & IL-12β) (Homo sapiens (Human), UniProt Q9NPF7 20-189; P29460 23-328).
T1 construct: also called heteromeric IL-23
T1 sequence 1: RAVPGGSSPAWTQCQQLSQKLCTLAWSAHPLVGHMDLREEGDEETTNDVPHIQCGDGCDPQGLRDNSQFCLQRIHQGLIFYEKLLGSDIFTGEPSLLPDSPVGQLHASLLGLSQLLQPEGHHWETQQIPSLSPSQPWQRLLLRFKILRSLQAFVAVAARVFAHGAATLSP
T1 sequence 2: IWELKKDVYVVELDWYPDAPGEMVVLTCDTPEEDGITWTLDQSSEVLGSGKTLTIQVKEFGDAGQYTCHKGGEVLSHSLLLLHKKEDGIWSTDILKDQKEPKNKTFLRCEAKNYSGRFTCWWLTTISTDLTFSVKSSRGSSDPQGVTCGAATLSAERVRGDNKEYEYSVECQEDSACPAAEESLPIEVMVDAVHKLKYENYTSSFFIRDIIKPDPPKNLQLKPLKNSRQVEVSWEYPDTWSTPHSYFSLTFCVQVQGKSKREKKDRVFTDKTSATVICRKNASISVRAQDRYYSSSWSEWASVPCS
Description: BLI (Octet); how IL-23 was offered is not described. Background: BLI is a label-free optical method that tracks binding on a fibre tip over time.
Regarding B1, the binding result is given as “binds”.

As to B2, the binding result was “binds”.

A further experiment concerns the target T2, monomeric TL1A (human, UniProt O95150 72-251, limits assumed).
T2 construct: also called TL1A monomer
T2 sequence: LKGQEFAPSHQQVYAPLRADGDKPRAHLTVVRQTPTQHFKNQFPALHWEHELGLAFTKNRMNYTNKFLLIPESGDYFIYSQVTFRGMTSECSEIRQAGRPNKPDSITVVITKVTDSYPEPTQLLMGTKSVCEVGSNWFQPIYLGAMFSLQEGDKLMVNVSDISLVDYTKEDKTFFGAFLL
Kind of experiment: SPR, antibody captured by anti-human IgG-Fc, TL1A monomer as analyte, pH 7.4; pH 7.4, monomeric TL1A as analyte. How it is done:
Binding kinetic assays were performed for determining pH dependent binding activity of a lead TL1A binding antibody candidate, as identified in Example 3, and 7 different variants thereof using surface plasma resonance (SPR) spectroscopy. Each TL1A binding candidate comprised a VH sequence that comprised at least one modification in CDR or framework region of variable region of the VH sequence. Briefly, an amine-coupled anti-human IgG-Fc specific polyclonal antibody was immobilized on a SPR sensor chip. All TL1A binding antibody candidates were expressed at 1 mL scale in chinese hamster ovary (CHO) cells for 6 days, and supernatant was cleared of cells by centrifugation. To form a captured antibody array, TL1A binding antibody candidates were batch diluted to approximately 1.7-13.3 nM (either after Protein A purification or directly from CHO supernatant) and injected onto the chip. Non-regenerative kinetics were measured by injecting TL1A monomer starting at a concentration of 2.57E-10 M, with 6-fold increase in concentration up to 3.33E-07 M at pH 7.4 and 5.8, respectively. Likewise, non-regenerative kinetics were also measured for TL1A trimer starting at a concentration of 2.57E-10 M, with 6-fold increase in concentration up to 3.33E-07 M at pH 7.4. Each analyte injection flowed over the array at […] for a 5-minute association phase, followed by a 10-minute buffer dissociation phase. Binding was detected and relative capture response units (RU) were collected for each antibody on the surface.
A word on the Kd: it is the equilibrium constant for the complex coming apart. Read a low Kd as tighter binding. B3 yielded a Kd of 6.46 nM.

With B4, the dissociation constant Kd was found to be 5.19 nM.

Turning to B5, the affinity, expressed as Kd, was 3.05 nM.

With B6, the Kd amounted to 4.57 nM.

In turn, B7 registered a Kd of 5.53 nM.

In turn, B8 came in with a Kd of 9.66 nM. Compared with the last molecule, the Kd is about 1.7-fold higher.

The next experiment concerns the target T3, biotinylated recombinant human TL1A (human, UniProt O95150 72-251, limits assumed, biotinylated (site not stated)).
T3 sequence: T2 sequence
Description: BLI (Octet); by Example 12 biotinylated recombinant human TL1A on streptavidin sensors, dipped into the bispecific antibody for 0-300 s; the sheet does not name the loaded protein or the antibody concentration. On the procedure:
Kinetic determination and assessment of pH dependency was performed on Octet BLI platform. Briefly, knob-in-hole bispecific antibodies that were prepared according to method described in Example 10 were used for this assay. Briefly, biotinylated recombinant human TL1A was diluted to 7.5 nM in kinetics buffer (1×PBS pH 7.4, 0.1% BSA, 0.05% Tween20, 0.05% sodium azide) and loaded onto streptavidin sensors for a period of 5 minutes. Sensors were then baselined in kinetics buffer before being dipped into bispecific antibodies diluted to varying concentrations, with two-fold serial dilutions for a 5-minute association step, followed by a 15-minute dissociation step. Top concentrations were determined based on approximate KD determined during a scouting experiment. Referencing was performed using a loaded sensor that was dipped into buffer as opposed to antibody, as well as unloaded sensors dipped into antibody. Then, data was aligned and fitted.
For the molecule B1, the binding result is recorded as “binds”.

As for B2, the binding result is “binds”.
